Experimental data published in patent EP4803548A1 (Beijing Wisdomab Biotechnology Co., Ltd, dated 2026).
Read-outs that look alike come from different tables or passages of the source.

T1: CD3D-CD3E-mFc (human; mouse)
T1 construct: also called antigen CD3D-CD3E-mFc
T1 chain 1: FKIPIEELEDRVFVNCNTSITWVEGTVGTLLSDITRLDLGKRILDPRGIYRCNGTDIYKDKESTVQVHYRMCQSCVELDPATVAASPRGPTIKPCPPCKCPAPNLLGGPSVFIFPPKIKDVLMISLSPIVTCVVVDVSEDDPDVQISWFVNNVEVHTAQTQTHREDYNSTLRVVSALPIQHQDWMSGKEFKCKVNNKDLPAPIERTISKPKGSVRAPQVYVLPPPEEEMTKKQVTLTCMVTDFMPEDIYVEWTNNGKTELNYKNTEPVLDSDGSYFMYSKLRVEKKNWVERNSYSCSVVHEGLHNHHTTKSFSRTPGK
T1 chain 2: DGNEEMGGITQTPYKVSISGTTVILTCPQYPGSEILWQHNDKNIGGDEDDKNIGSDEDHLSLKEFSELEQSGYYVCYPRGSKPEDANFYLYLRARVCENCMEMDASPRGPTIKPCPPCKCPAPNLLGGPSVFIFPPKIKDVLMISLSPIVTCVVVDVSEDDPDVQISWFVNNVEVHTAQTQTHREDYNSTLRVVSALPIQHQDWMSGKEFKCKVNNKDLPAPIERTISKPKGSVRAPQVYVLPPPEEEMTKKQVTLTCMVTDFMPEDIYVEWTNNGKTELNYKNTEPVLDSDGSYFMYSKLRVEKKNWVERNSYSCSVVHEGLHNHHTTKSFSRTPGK

B1: TCRm×CD3 bispecific antibody 2N1B5+IMCR (bispecific antibody)
chain 1: QVQLVESGGGSVQAGGSLRLSCAASDDTYMTNCMGWFRQAPGKEREGVAAIYTGGGRAVYADSVRGRFTISQDNAKNTVYLQMNSLKPEDTAMYYCAADWLGPDMTDIQVLGALPWFNYWGQGTLVTVSSGGGGSGGGGSGGGGSQVQLVESGGGSVQAGGSLRLSCAASDDTYMTNCMGWFRQAPGKEREGVAAIYTGGGRAVYADSVRGRFTISQDNAKNTVYLQMNSLKPEDTAMYYCAADWLGPDMTDIQVLGALPWFNYWGQGTLVTVSSASERKSSVECPPCPAPEFEGGPSVFLFPPKPKDTLMISRTPEVTCVVVDVSQEDPEVQFNWYVDGVEVHNAKTKPREEQYNSTYRVVSVLTVLHQDWLNGKEYKCKVSNKALPASIEKTISKAKGQPREPQVCTLPPSQEEMTKNQVSLSCAVKGFYPSDIAVEWESNGQPENNYKTTPPVLDSDGSFFLVSKLTVDKSRWQEGNVFSCSVMHEALHNHYTQKSLSLSPGK
chain 2: not shown
B2: TCRm×CD3 bispecific antibody 2N1B5-h4+IMCR (bispecific antibody)
chain 1: EVQLVESGGGLVQPGGSLRLSCAASDDTYMTNCMGWFRQAPGKERVGVAAIYTGGGRAVYADSVRGRFTISQDNAKNTVYLQMNSLKPEDTAMYYCAADWLGPDMTDIQVLGALPWFNYWGQGTLVTVSSGGGGSGGGGSGGGGSEVQLVESGGGLVQPGGSLRLSCAASDDTYMTNCMGWFRQAPGKERVGVAAIYTGGGRAVYADSVRGRFTISQDNAKNTVYLQMNSLKPEDTAMYYCAADWLGPDMTDIQVLGALPWFNYWGQGTLVTVSSASERKSSVECPPCPAPEFEGGPSVFLFPPKPKDTLMISRTPEVTCVVVDVSQEDPEVQFNWYVDGVEVHNAKTKPREEQYNSTYRVVSVLTVLHQDWLNGKEYKCKVSNKALPASIEKTISKAKGQPREPQVCTLPPSQEEMTKNQVSLSCAVKGFYPSDIAVEWESNGQPENNYKTTPPVLDSDGSFFLVSKLTVDKSRWQEGNVFSCSVMHEALHNHYTQKSLSLSPGK
chain 2: not shown
B3: N1B5-h4-Fc recombinant protein (humanized anti-HLA-A02/HBsAg complex TCRm antibody N1B5-h4) (Fc fusion)
chain: EVQLVESGGGLVQPGGSLRLSCAASDDTYMTNCMGWFRQAPGKERVGVAAIYTGGGRAVYADSVRGRFTISQDNAKNTVYLQMNSLKPEDTAMYYCAADWLGPDMTDIQVLGALPWFNYWGQGTLVTVSS
B4: N1B5-Fc recombinant protein (anti-HLA-A02/HBsAg complex TCRm antibody N1B5) (Fc fusion, not shown: a dimerising Fc or GST)
chain: QVQLVESGGGSVQAGGSLRLSCAASDDTYMTNCMGWFRQAPGKEREGVAAIYTGGGRAVYADSVRGRFTISQDNAKNTVYLQMNSLKPEDTAMYYCAADWLGPDMTDIQVLGALPWFNYWGQGTLVTVSS

Experiments:
[1] = molecular target: T2, HLA-A02 complex presenting … (MIP-H1-01), disulfide trap single-chain trimer; test: SPR Biacore T200; method of Section 3.1
CD3D-CD3E-mFc = molecular target: T1, CD3D-CD3E-mFc; test: SPR Biacore T200; method of Section 3.1, CD3D-CD3E-mFc as antigen
[2] = molecular target: T3, HLA-A02/HBsAg348-357 (…) complex on the cell surface (human; human (Homo sapiens) as printed …); test: cell-based or functional assay
[3] = molecular target: T3, HLA-A02/HBsAg348-357 (…) complex on the …; test: cell-based or functional assay; remark: listed apart in the source
[4] = molecular target: T3, HLA-A02/HBsAg348-357 (…) complex on the …; test: cell-based or functional assay; remark: listed apart in the source
[5] = molecular target: T3, HLA-A02/HBsAg348-357 (…) complex on the …; test: cell-based or functional assay; remark: listed apart in the source
[6] = molecular target: T2, HLA-A02 complex presenting … …
[7] = molecular target: T2, HLA-A02 complex presenting … …; remark: listed apart in the source

Binder	Kd [1] [nM]	koff [1] [s⁻¹]	kon [1] [M⁻¹ s⁻¹]	Kd (CD3D-CD3E-mFc) [nM]	koff (CD3D-CD3E-mFc) [s⁻¹]	kon (CD3D-CD3E-mFc) [M⁻¹ s⁻¹]	EC50 of activation of Jurkat-Dual cells by targeting HLA-A02+/HBsAg+ tumor cells HepG2-HBsAg (QUANTI-Luc) [2] [nM]	EC50 of killing of HepG2-HBsAg cells by PBMCs (LDH release) [3] [nM]	EC50 of killing of antigen peptide-pulsed T2 cells by PBMCs (LDH release) [4] [nM]	EC50 of activation of Jurkat-Dual cells by targeting antigen peptide-pulsed T2 cells (QUANTI-Luc) [5] [nM]	Kd [6] [nM]	koff [6] [s⁻¹]	kon [6] [M⁻¹ s⁻¹]	Kd [7] [nM]	koff [7] [s⁻¹]	kon [7] [M⁻¹ s⁻¹]
B1	0.237	0.000145	613000	2.96	0.000175	59200	0.389	0.00883	0.000278	0.00241						
B2	0.531	0.00014	263000	2.04	0.000132	64700		0.00952	0.000209							
B3											0.191	0.000125	656000			
B4														0.14	9.7e-05	692000
